Patent US20240376226A1 (JANUX THERAPEUTICS, published 2024)

Biological target: T1, CD3 (UniProt P07766 23-126)
T1 construct: also called CD3-biotin; CD3 biotin
Assay: ELISA, antibody titrated on captured antigen

T1 sequence (P07766 23-126): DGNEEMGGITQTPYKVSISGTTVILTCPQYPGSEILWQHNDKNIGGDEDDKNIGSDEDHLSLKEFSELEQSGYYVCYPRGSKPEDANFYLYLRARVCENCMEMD

B1: SP34 (Ab-9, Ab-10) (antibody, mouse IgG1, V domains shown)
VH: EVQLVESGGGLVQPKGSLKLSCAASGFTFNTYAMNWVRQAPGKGLEWVARIRSKYNNYATYYADSVKDRFTISRDDSQSILYLQMNNLKTEDTAMYYCVRHGNFGNSYVSWFAYWGQGTLVTVSS
VL: QAVVTQESALTTSPGETVTLTCRSSTGAVTTSNYANWVQEKPDHLFTGLIGGTNKRAPGVPARFSGSLIGDKAALTITGAQTEDEAIYFCALWYSNLWVFGGGTKLTVLQ
notes: used naked or chemically biotinylated; also called SP34-biotin
Work on B1 yielded an EC50 of under 1 nM.
